According to patent publication US20030027781:

Test system: RBC ghost membrane 105 kDa protein (unidentified; disulfide-linked dimer, ~210 kDa non-reduced) (Homo sapiens)
Assay: filter
Details: Scatchard on RBC ghosts, 1600 sites per cell; target assigned to 105 kDa protein by crosslinking

AACTCAGTGGTAGGTAACGGTT [c56t]
Kd: 4 nM
